Experimental data published in patent US11648290B2, “Cartilage-homing peptides” (FRED HUTCHINSON CANCER CENTER, priority 2015, dated 2023).

Assays:
cartilage [1] = settings: for Cartilage (C): percentage of signal in the cartilage compared to the blood signal in the heart ventricle / Muscle (M): signal compared to the level in the blood: 3 hours after administration, ligated kidneys, 14C-labelled peptide, tail vein
Experimental: This example describes a dosing scheme for administering knottin peptides to mice in conjunction with kidney ligation. Different dosages of the peptides were administered to Female Harlan athymic nude mice, weighing 20 g-25 g, via tail vein injection (n=2 mice per knottin). The experiment was done in duplicates. The kidneys were ligated to prevent renal filtration of the peptides. Each peptide was radiolabeled by methylating lysines and the N-terminus, so the actual binding agent may contain methyl or dimethyl lysine(s) and a methylated or dimethylated amino terminus.
A target dosage of 50-100 nmol of each peptide carrying 10-25 uCi of ^14C was administered to Female Harlan athymic nude mice while anesthetized. Each peptide was allowed to freely circulate within the animal before the animals were euthanized and sectioned.
This example illustrates peptide homing to cartilage of mice with kidneys that were ligated prior to peptide administration. At the end of the dosing period in EXAMPLE 3, mice were frozen in a hexane/dry ice bath and then frozen in a block of carboxymethylcellulose. […] Thin, frozen sections of animal including imaging of tissues such as brain, tumor, liver, kidney, lung, heart, spleen, pancreas, muscle, adipose, gall bladder, upper gastrointestinal tract, lower gastrointestinal tract, bone, bone marrow, reproductive track, eye, cartilage, stomach, skin, spinal cord, bladder, salivary gland, and other types of tissues were obtained with a microtome, allowed to desiccate in a freezer, and exposed to phosphoimager plates for about ten days.
These plates were developed, and the signal (densitometry) from each organ was normalized to the signal found in the heart blood of each animal. A signal in tissue darker than the signal expected from blood in that tissue indicates peptide accumulation in a region, tissue, structure or cell. For instance, the cartilage is avascular and contains minute amounts of blood. A ratio of at least 170% signal in the cartilage versus heart ventricle was chosen as a reference level for significant targeting to cartilage, which also correlated with clear accumulation in cartilaginous tissues in the images of the slices.
The SEQ ID NO: 24 peptide was radiolabeled as in Example 3 and 100 nmol of peptide was injected into a mouse with intact kidneys. FIG. 5 illustrates the retention of and the tissue distribution in the cartilage of a peptide of SEQ ID NO: 24, 24 hours after administration.

[2] = Temperature stability of peptides (RP-HPLC); format: physicochemical
Experimental: This example illustrates peptide stability at high temperatures. Peptides were first suspended in 500 μl of ddH2O to a stock concentration of 2 mg/ml. Reactions were prepared by adding 6.25 μl of peptide from the stock solution with 95 μl ddH2O and incubated at room temperature, 70° C., or 100° C. for one hour in a Thermocycler. RP-HPLC was then run on samples using an Agilent 1260 HPLC equipped with a C-18 Poroshell 120B column. Sample were analyzed by a gradient method with a mobile phase of Solvent A (water with 0.1% TFA) and Solvent B (acetonitrile with 0.1% TFA). Solvent B was ramped up from 5%-45% of the mobile phase over a period of 10 minutes.
Peptides of SEQ ID NO: 28 and SEQ ID NO: 483 were analyzed by HPLC after incubation at room temperature (25° C.), 70° C., or 100° C. for one hour.

cartilage [3] = experiment: Cartilage homing, no method given; settings: in vivo
[4] = test system: cartilage (IVD, knee / synovial joints); experiment: Whole body autoradiography (WBA) of radiolabeled cartilage homing peptides (Example 21); format: in vivo, Female Harlan athymic nude mice; settings: for Signal in the intervertebral disc (IVD), Average: percentage of blood
Experimental: This example illustrates peptide homing to cartilage mice 5 minutes to 48 hours after administration of a radiolabeled peptide. Signal from the radiolabeled peptides was found in all types of cartilage at each time point examined. Each peptide was radiolabeled by methylating […] as described in EXAMPLE 2. As such, the peptide may contain methyl or dimethyl lysines and a methylated or dimethylated amino terminus. A dose of 100 nmol radiolabeled peptide was administered via tail vein injection in Female Harlan athymic nude mice, weighing 20-25 g. The experiment was done in duplicate (n=2 animals per group). In some animals, kidneys were ligated to prevent renal filtration of the radiolabeled peptides and extend plasma half-life. Each radiolabeled peptide was allowed to freely circulate within the animal for the described time period before the animals were euthanized and sectioned.
Whole body autoradiography (WBA) sagittal sectioning was performed as follows. […] Sections were allowed to desiccate in a freezer prior to imaging.
For the autoradiography imaging, tape mounted thin sections were freeze dried and radioactive samples were exposed to phophoimager plates for 7 days.

[5] = Peptide resistance to reducing agents (10 mM DTT, RP-HPLC); format: physicochemical; settings: 10 mM DTT in PBS, room temperature, 30 minutes
Experimental: Several peptides were suspended in 500 μl of ddH2O to a stock concentration of 2 mg/ml. Reactions were prepared by adding 12.5 μg peptide from the stock solution to a 10 mM solution of DTT in PBS and allowed to incubate at room temperature for 30 minutes. RP-HPLC was run on samples using an Agilent 1260 HPLC equipped with a C-18 Poroshell 120B column. Samples were analyzed by a gradient method with a mobile phase of Solvent A (water with 0.1% TFA) and Solvent B (acetonitrile with 0.1% TFA). Solvent B was ramped up from 5%-45% of the mobile phase over a period of 10 minutes.
Peptides were fractionated by HPLC and without any further sample prep, 5 μl of the sample was injected into the mass spectrometer at 1 mg/ml using a CTCPAL® autosampler. Alternatively, if peptides were provided as a lyophilized powder, the sample was dissolved in 100% water to a concentration of 1 mg/ml a Millipore Ziptip C18® column was used to desalt the peptides prior to injection for ES-MS. The mass spectrometer was calibrated using 5 pmol of mixture of five standard peptides to achieve a high accuracy of mass determination with less than a 10 ppm error. Confirmation of peptide disulfide bond formation was achieved by analyzing the m/z isotopic distribution and the exact charge. All peptides tested are shown under reducing and non-reducing conditions.

[6] = 3 hr after 100 nmol radiolabeled peptide
[7] = 24 hr after 100 nmol radiolabeled peptide

| Substance | Cartilage (C): percentage of signal in the cartilage compared to the blood signal in the heart ventricle (cartilage [1]) | Muscle (M): signal compared to the level in the blood (cartilage [1]) | further results |
| --- | --- | --- | --- |
| 21 (GSGIVCKVCKIICGMQGKKVNICKAPIKCKCKKG) [compound 21] | 270% | 36% | – |
| 22 (GSSEKDCIKHLQRCRENKDCCSKKCSRRGTNPEKRCR) [compound 22] | 337% | 27% | – |
| 23 (GSVRIPVSCKHSGQCLKPCKDAGMRFGKCMNGKCDCTPK) [compound 23] | 497% | 26% | – |
| 24 (GSGVPINVKCRGSRDCLDPCKKAGMRFGKCINSKCHCTP) [compound 24] | 624% | 34% | – |
| 25 (GSAVCVYRTCDKDCKRRGYRSGKCINNACKCYPYG) [compound 25] | 358% | 24% | – |
| 26 (GSISCTGSKQCYDPCKRKTGCPNAKCMNKSCKCYGCG) [compound 26] | 413% | 38% | – |
| 27 (GSQVQTNVKCQGGSCASVCRREIGVAAGKCINGKCVCYRN) [compound 27] | 448% | 31% | – |
| 28 (GSEVIRCSGSKQCYGPCKQQTGCTNSKCMNKVCKCYGCG) [compound 28] | 361% | 17% | – |
| 29 (GSACKGVFDACTPGKNECCPNRVCSDKHKWCKWKL) [compound 29] | 243% | 26% | – |
| 30 (GSQIYTSKECNGSSECYSHCEGITGKRSGKCINKKCYCYR) [compound 30] | 221% | 26% | – |
| 31 (GSGCLEFWWKCNPNDDKCCRPKLKCSKLFKLCNFSFG) [compound 31] | 306% | 68% | – |
| 33 (GSGCFGYKCDYYKGCCSGYVCSPTWKWCVRPGPGR) [compound 33] | 179% | 28% | – |
| 196 (GSQKILSNRCNNSSECIPHCIRIFGTRAAKCINRKCYCYP) [compound 196] | 291% | 30% | – |
| 198 (GSAVCNLKRCQLSCRSLGLLGKCIGDKCECVKHG) [compound 198] | 276% | 26% | – |
| 433 (GSKCLPPGKPCYGATQKIPCCGVCSHNNCT) [compound 433] | 156% | 20% | – |
| 483 (GSISIGIKCSPSIDLCEGQCRIRKYFTGYCSGDTCHCSG) [compound 483] | 67% | 24% | – |
| 485 (METDTLLLWVLLLWVPGSTG) [compound 485] | 92% | 21% | – |
| GSEVIRCSGSKQCYGPCKQQTGCTNSKCMNKVCKCYGCG [SEQ ID NO: 28] | – | – | Stability after heat incubation (HPLC) ([2]; 70 C for 1 hour): resistant to heat-induced degradation; Stability after heat incubation (HPLC) ([2]; 100 C for 1 hour): underwent various degrees of degradation |
| GSGDCLPHLKRCKENNDCCSKKCKRRGANPEKRCR [SEQ ID NO: 205] | – | – | Cartilage homing (cartilage [3]): home to cartilage |
| GSGDCLPHLRRCRENNDCCSRRCRRRGANPERRCR [SEQ ID NO: 200] | – | – | Cartilage homing (qualitative, WBA) ([4]; 100 nmol radiolabeled peptide): showed signal in cartilage and exhibited cartilage homing properties; Change of signal in IVD and joint cartilage between 3 and 24 hours ([4]; 100 nmol radiolabeled peptide): maintained or increased; Signal in the intervertebral disc (IVD), Average [4, 6]: 1809%; Signal in synovial joints as a percentage of signal in blood, Average [4, 7]: 4991%; Signal in the intervertebral disc (IVD), Average [4, 7]: 3542% |
| GSKCLPPGKPCYGATQKIPCCGVCSHNNCT [SEQ ID NO: 433, reference compound] | – | – | Homing to cartilage (autoradiography, FIG. 11) (cartilage [1]; 24 hours after administration of 100 nmol): did not home to cartilage and was seen in the bone marrow |
| GSQKILSNRCNNSSECIPHCIRIFGTRAAKCINRKCYCYP [SEQ ID NO: 196] | – | – | HPLC peaks under non-reducing versus reducing conditions (resistance to reduction by DTT) [5]: Peaks showing the peptide under non-reducing conditions and reducing conditions are overlapping |
| GSQVQTNVRCQGGSCASVCRREIGVAAGRCINGRCVCYRN [SEQ ID NO: 114] | – | – | Cartilage homing (qualitative, WBA) ([4]; 100 nmol radiolabeled peptide): showed signal in cartilage and exhibited cartilage homing properties; Change of signal in IVD and joint cartilage between 3 and 24 hours ([4]; 100 nmol radiolabeled peptide): reduced residence time with a signal near the limit of detection by 24 hours; Signal in synovial joints as a percentage of signal in blood, Average [4, 6]: 1175%; Signal in the intervertebral disc (IVD), Average [4, 6]: 1075%; Signal in the intervertebral disc (IVD), Average [4, 7]: 191% |
| GSSEKDCIKHLQRCRENKDCCSKKCSRRGTNPEKRCR [SEQ ID NO: 22] | – | – | Cartilage homing (cartilage [3]): home to cartilage |
| GSSERDCIRHLQRCRENRDCCSRRCSRRGTNPERRCR [SEQ ID NO: 109] | – | – | Cartilage homing (qualitative, WBA) ([4]; 100 nmol radiolabeled peptide): showed signal in cartilage and exhibited cartilage homing properties; Change of signal in IVD and joint cartilage between 3 and 24 hours ([4]; 100 nmol radiolabeled peptide): maintained or increased; Rank of signal in cartilage among SEQ ID NO: 109, 200, 110, 114 ([4]; 100 nmol radiolabeled peptide): highest signal in cartilage; Signal in synovial joints as a percentage of signal in blood, Average [4, 6]: 5627%; Signal in the intervertebral disc (IVD), Average [4, 6]: 2758%; Signal in synovial joints as a percentage of signal in blood, Average [4, 7]: 5097%; Signal in the intervertebral disc (IVD), Average [4, 7]: 4367% |
| GSVRIPVSCRHSGQCLRPCRDAGIVIRFGRCMNGRCDCTPR [SEQ ID NO: 110] | – | – | Cartilage homing (qualitative, WBA) ([4]; 100 nmol radiolabeled peptide): showed signal in cartilage and exhibited cartilage homing properties; Change of signal in IVD and joint cartilage between 3 and 24 hours ([4]; 100 nmol radiolabeled peptide): decreased; Signal in synovial joints as a percentage of signal in blood, Average [4, 6]: 3142%; Signal in the intervertebral disc (IVD), Average [4, 6]: 2374%; Signal in synovial joints as a percentage of signal in blood, Average [4, 7]: 981%; Signal in the intervertebral disc (IVD), Average [4, 7]: 1327% |
| VFINVKCRGSPECLPKCKEAIGKSAGKCMNGKCKCYP [SEQ ID NO: 422] | – | – | Cartilage homing (cartilage [3]): homes to cartilage |
